The target of the test is T1, recombinant human uPAR protein (Leu23-Arg303) with a C-terminal 6-his tag (human, UniProt Q03405 23-303).
T1 construct: also called CD87
Nature of the test: Biacore (SPR), single cycle kinetics. How it is done: Six clones 8B1, 11E10, 17C9, 19D7, 6C8, and 14C5 were produced. Next, the binding affinities KD of 8B1, 11E10, 17C9, 19D7, 6C8, and 14C5 antibodies were assessed. The KD values were calculated using the Biacore single cycle kinetics analysis.
On the technique in general: Surface plasmon resonance follows binding to a sensor surface in real time, without labels.

From patent publication US20240117066A1 (Memorial Sloan Kettering, published 2024) come the findings set out here.

What is called Kd is the constant that tells how readily two partners part at equilibrium.

T1 sequence (Q03405 other isoform, or with tags, fused parts or gaps): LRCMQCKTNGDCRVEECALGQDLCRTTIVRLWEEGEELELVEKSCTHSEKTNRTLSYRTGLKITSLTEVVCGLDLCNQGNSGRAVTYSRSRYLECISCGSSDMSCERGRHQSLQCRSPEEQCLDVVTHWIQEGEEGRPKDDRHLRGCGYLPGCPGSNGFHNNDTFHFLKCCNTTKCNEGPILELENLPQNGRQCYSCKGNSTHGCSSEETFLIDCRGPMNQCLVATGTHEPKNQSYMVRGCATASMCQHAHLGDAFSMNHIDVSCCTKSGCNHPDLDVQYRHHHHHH

B1: 14C5 antibody (antibody, V domains shown)
VH: QVQLKESGPGLVAPSQSLSITCTVSGFSLTSYGVHWVRQPPGKGLEWLGVLWAGGSTDYNSALMSRLSISKDNSKSQVFLKMNSLQTDDTAMYYCARGGLRQVFAYWGQGTLVTVSA
VL: DVLMTQTPLSLPVSLGDQASISCRSSQSIVYSNGNTYLEWYLQKPGQSPKLLIYKVSNRFSGVPDRFSGSGSGTDFTLKISRVEAEDLGVYYCFQGSHVPYTFGGGTKLEMK
Turning to B1, the dissociation constant (Kd) was 42.4 nM.

B2: 8B1 antibody (antibody, V domains shown)
VH: QIQLVQSGPELKKPGETVKISCKASGYTFTNYGMNWVKQAPGKGLKWMGWINTNTGEPTYAEEFKGRFAFSLETSASTAYLQINNLKNEDTATYFCGDYEFAYWGQGTLVTVSA
VL: DIQMTQSPASLSVSVGETVTITCRASENIYSNLAWYQQKQGKSPQLLVYAATNLADGVPSRFSGSGSGTQYSLKINSLQSEDFGSYYCQHFWGTPWTFGGGTKLEIK
Turning to B2, the dissociation constant Kd is 3.48 nM.

B3: 17C9 antibody (antibody, V domains shown)
VH: EVQLVESGGGLVKPGGSLKLSCAASGFTFSSYAMSWVRQSPEKRLEWVAEISSGGTYTYYPDTVTGRFTISRDNAKNTLYLEMSSLRSEDTAMYYCARDDGFYAWFGYWGQGTLVTVSA
VL: not shown
On to B3, for which the Kd was 18.6 nM.

B4: 11E10 antibody (antibody, V domains shown)
VH: QVQLQQSGPELVKPGASVKMSCKTSGYTFTDYVITWVKQRTGQGLEWIGEIYPRSGNTYYNAKFRGKATLTADKSSNTAYMQLSSLTSEDSAVYFCARGGYYDFDFFAMDYWGQGTSVTVSS
VL: DIVMTQAAPSVPVTPGESVSISCRSSKSLLHSNGNTYLYWFLQRPGQSPQLLIYRMSNLASGVPDRFSGSGSGTAFTLRISRVEAEDVGVYYCMQHLEYPYTFGGGTKLEIK
Take B4: the dissociation constant Kd came out at 95.2 nM.

B5: 6C8 antibody (antibody, V domains shown)
VH: EVQLVESGGGLVQPGGSLKISCAASGFTFTNYGMSWVRQTPDKRLELVATTNSNGGATYYPDSVKGRFTISRDNAKNTLYLQMSSLKSEDTAMYFCTRDRDYYGGSMDYWGQGTSVTVSS
VL: DIVMSQSPSSLAVSVGERVSMSCKSSQSLLYSSDQKNYLAWYQQKPGQSPELLIYWASTRESGVPDRFTGSGSGTDFTLTISSVKAEDLAIYYCQQYYSYPFTFGSGTKLEIK
As for B5, the Kd worked out at 6.61 nM.
